Experimental data as given in patent US20220362368A1.
Read-outs that look alike come from different tables or passages of the source.

Columns and labels:
human IgG [1] = assay: SPR, test article on chip, human IgG in flow
[2] = biological target: SpAKKAA (Staphylococcus aureus); assay: ELISA, OD 450 against log10(1/dilution of 3F6), initial 0.05 mg/mL
[3] = biological target: SpAQ9,10K/G29F/D36,37A (Staphylococcus aureus) (UniProt P02976); assay: as above
[4] = biological target: Fcγ fragment of human IgG (human); assay: BLI, test article on Ni-NTA sensor, Fc fragment of human IgG in solution
[5] = biological target: F(ab)2 fragment of human IgG; assay: SPR, test article on chip, F(ab)2 fragment of human IgG in flow
[6] = biological target: SpAQ9,10K/S33T (Staphylococcus aureus)
[7] = biological target: SpAQ9,10K/S33E (Staphylococcus aureus)
[8] = biological target: SpAKKAA (Staphylococcus aureus); assay: ELISA, plates coated with SpAKKAA, serial dilution of rMAb 3F6
[9] = biological target: SpAQ9,10K/S33T (Staphylococcus aureus); assay: ELISA, plate coated with antigen, serial dilutions of rMAb 3F6
[10] = biological target: SpAKKAA (Staphylococcus aureus); assay: as above
[11] = biological target: SpAQ9,10K/S33E (Staphylococcus aureus); assay: as above
[12] = biological target: SpAQ9,10K/S33T (Staphylococcus aureus); assay: ELISA, association constant calculated with GraphPad Prism; head of the table: KA (x 10^10) M^-1
[13] = biological target: SpAKKAA (Staphylococcus aureus); assay: as above
[14] = biological target: SpAQ9,10K/S33E (Staphylococcus aureus); assay: as above
[15] = biological target: SpAKKAA (Staphylococcus aureus); assay: ELISA, plates coated with SpAKKAA, serial dilution of hMAb 3F6
[16] = biological target: SpAQ9,10K/S33T (Staphylococcus aureus); remark: listed apart in the source
[17] = biological target: SpAQ9,10K/S33E (Staphylococcus aureus); remark: listed apart in the source
human IgE = assay: method and unit not told (binding affinity of the variants to human IgE)
human IgG [18] = assay: method and unit not given (binding affinity of the variants to human IgG)

Substance | Ka (human IgG [1]) [M⁻¹] | other results
SpAQ9,10K/S33G (from UniProt P02976 37-327) | 1.12e+06 | 
SpAQ9,10K/S33E/G29A (from UniProt P02976 37-327) | 126000 | 
3F6 (antibody) |  | EC50 (read off the curve) [2]: 6 ng/mL; EC50 (read off the curve) [3]: 6 ng/mL
SpAQ9,10K/S33Q/D36,37A/G29A | 489000 | 
SpAQ9,10K/G29I (from UniProt A0A0H3K686 37-327) | 1.01e+06 | 
SpAQ9,10K/G29V (from UniProt A0A0H3K686 37-327) | 435000 | 
SpAQ9,10K/S33Q/D36,37A (from UniProt P02976 37-327) | 393000 | 
SpAQ9,10K/S33E/D36,37A/G29A (from UniProt P02976 37-327) | 189000 | 
SpAQ9,10K/G29L (from UniProt A0A0H3K686 37-327) | 315000 | 
SpAQ9,10K/S33T (from UniProt A0A0H3K686 37-327) | 38600 | Ka [4]: 39.9 M⁻¹; Ka [5]: 43.5 M⁻¹
SpAQ9,10K/S33N (from UniProt A0A0H3K686 37-327) | 307000 | 
SpAQ9,10K/S33Q/D36,37A/G29R | 638000 | 
SpAQ9,10K/G29A (from UniProt A0A0H3K686 37-327) | 1.13e+06 | 
SpAQ9,10K/S33E/G29R (from UniProt P02976 37-327) | 484000 | 
SpAQ9,10K/S33F/G29R (from UniProt A0A0H3K686 37-327) | 190000 | 
SpAQ9,10K/S33H (from UniProt A0A0H3K686 37-327) | 278000 | 
SpAQ9,10K/S33L (from UniProt A0A0H3K686 37-327) | 205000 | 
SpAQ9,10K/G29F (from UniProt A0A0H3K686 37-327) | 346000 | 
SpAQ9,10K/S33C (from UniProt P02976 37-327) | 458000 | 
SpAQ9,10K/G29K (from UniProt A0A0H3K686 37-327) | 974000 | 
SpAQ9,10K/G29P (from UniProt A0A0H3K686 37-327) | 340000 | 
recombinant monoclonal antibody rMAb 3F6 |  | EC50 (read off the curve) [6]: 0.07 nM; EC50 (read off the curve) [7]: 0.07 nM; EC50 (read off the curve) [8]: 0.07 nM; Ka [9]: 1.34e+10 M⁻¹; Ka [10]: 1.51e+10 M⁻¹; Ka [11]: 1.42e+10 M⁻¹

Substance | Ka (human IgG [1]) [M⁻¹] | other results
hMAb 3F6 (antibody) |  | Ka [12]: 7.96e+10 M⁻¹; Ka [13]: 4.99e+10 M⁻¹; Ka [14]: 9.82e+10 M⁻¹; EC50 (read off the curve) [15]: 0.4 nM; EC50 (read off the curve) [16]: 0.3 nM; EC50 (read off the curve) [17]: 0.3 nM
SpAQ9,10K/S33F/G29A (from UniProt A0A0H3K686 37-327) | 119000 | 
SpAQ9,10K/G29D (from UniProt A0A0H3K686 37-327) | 548000 | 
SpAQ9,10K/S33A/D36,37A (from UniProt A0A0H3K686 37-327) | 1.88e+06 | 
SpAQ9,10K/S33I (from UniProt A0A0H3K686 37-327) | 184000 | 
SpAQ9,10K/G29C (from UniProt A0A0H3K686 37-327) | 174000 | 
SpAQ9,10K/S33E/D36,37A/G29F (from UniProt P02976 37-327) | 1.48e+06 | 
SpAQ9,10K/G29A/D36,37A (from UniProt A0A0H3K686 37-327) | 178000 | human IgE affinity (human IgE): 3.43e-06; human IgG affinity (human IgG [18]): 0.000143
SpAQ9,10K/S33M (from UniProt A0A0H3K686 37-327) | 318000 | 
SpAQ9,10K/S33Q/D36,37A/G29F | 1.25e+06 | 
SpAQ9,10K/G29S (from UniProt A0A0H3K686 37-327) | 940000 | 
SpAQ9,10K/G29E (from UniProt A0A0H3K686 37-327) | 318000 | 
SpAQ9,10K/S33E/D36,37A/G29R (from UniProt P02976 37-327) | 1.02e+06 | 
SpAQ9,10K/G29R (from UniProt A0A0H3K686 37-327) | 606000 | 
SpAQ9,10K/S33Y (from UniProt A0A0H3K686 37-327) | 157000 | 
SpAQ9,10K/S33W (from UniProt A0A0H3K686 37-327) | 236000 | 
SpAQ9,10K/S33K (from UniProt P02976 37-327) | 512000 | 
SpAQ9,10K/G29Q (from UniProt A0A0H3K686 37-327) | 206000 | 
SpAQ9,10K/S33R (from UniProt A0A0H3K686 37-327) | 346000 | 
SpAQ9,10K/G29M (from UniProt A0A0H3K686 37-327) | 389000 | 
SpAQ9,10K/S33P (from UniProt P02976 37-327) | 422000 | 
SpAQ9,10K/S33Q/G29R (from UniProt A0A0H3K686 37-327) | 233000 | 

Substance | Ka (human IgG [1]) [M⁻¹] | other results
SpAQ9,10K/S33D (from UniProt P02976 37-327) | 382000 | 
SpAQ9,10K/G29Y (from UniProt A0A0H3K686 37-327) | 837000 | 
SpAQ9,10K/S33V (from UniProt A0A0H3K686 37-327) | 247000 | 
SpAQ9,10K/S33K/D36,37A (from UniProt A0A0H3K686 37-327) | 805000 | 
SpAQ9,10K/S33F/G29F (from UniProt A0A0H3K686 37-327) | 244000 | 
SpAQ9,10K/G29W (from UniProt A0A0H3K686 37-327) | 451000 | 
SpAQ9,10K/S33Q/G29A (from UniProt A0A0H3K686 37-327) | 256000 | 
wild-type SpA (five immunoglobulin-binding domains of staphylococcal protein A) (from UniProt P02976 37-327) |  | Ka [4]: 5.17e+07 M⁻¹
SpAKKAA (from UniProt A0A0H3K686 37-327) | 502000 | human IgE affinity (human IgE): 6.57e-08; Ka [4]: 32.9 M⁻¹; Ka [5]: 82700 M⁻¹; human IgG affinity (human IgG [18]): 6.6e-05
SpAQ9,10K/G29H (from UniProt A0A0H3K686 37-327) | 144000 | 
SpAQ9,10K/S33F/D36,37A (from UniProt A0A0H3K686 37-327) | 363000 | 
SpAQ9,10K/G29F/D36,37A (from UniProt P02976 37-327) | 372000 | human IgE affinity (human IgE): 2.02e-05; human IgG affinity (human IgG [18]): 0.0124
SpAQ9,10K/G29R/D36,37A (from UniProt A0A0H3K686 37-327) | 681000 | 
SpAQ9,10K/S33E/D36,37A (from UniProt P02976 37-327) | 56800 | 
SpAQ9,10K/G29N (from UniProt A0A0H3K686 37-327) | 623000 | 
SpAQ9,10K/S33E/G29F (from UniProt P02976 37-327) | 158000 | 
SpAQ9,10K/S33E (from UniProt A0A0H3K686 37-327) | 49600 | Ka [4]: 32.7 M⁻¹; Ka [5]: 41.2 M⁻¹
SpAQ9,10K/S33F/D36,37A/G29R | 906000 | 
SpAQ9,10K/S33Q/G29F (from UniProt A0A0H3K686 37-327) | 128000 | 
SpAQ9,10K/G29T (from UniProt A0A0H3K686 37-327) | 198000 | 
